From patent publication US20200353049A1
Several values for one entry are separate records, joined by “and”; a condition that tells them apart may be missing. Equal entries are not always repeated.

Tests used:
[1] = molecular target: IL-22R1a extracellular domain (ECD) (UniProt Q8N6P7); experiment: potency assay (binding ELISA on plate-coated IL-22R1a ECD); change after 6 months at 25 C (supportive stability study)
[2] = molecular target: IL-22R1a extracellular domain (ECD) (UniProt Q8N6P7); experiment: potency assay (binding ELISA on plate-coated IL-22R1a ECD), relative to reference standard (100%); stored 5 C, 12 months
[3] = molecular target: IL-22R1a extracellular domain (ECD) (UniProt Q8N6P7); experiment: binding ELISA on plate-coated IL-22R1a ECD, relative to Reference Standard (100%); stored -20 C, 18 months
[4] = molecular target: IL-22R1a extracellular domain (ECD) (UniProt Q8N6P7); experiment: binding ELISA on plate-coated IL-22R1a ECD, relative to Reference Standard (100%); stored -20 C, 48 months
[5] = molecular target: IL-22R1a extracellular domain (ECD) (UniProt Q8N6P7); experiment: potency assay (binding ELISA on plate-coated IL-22R1a ECD), relative to reference standard (100%); stored 25 C, 2 months
[6] = molecular target: IL-22R1a extracellular domain (ECD) (UniProt Q8N6P7); experiment: binding ELISA on plate-coated IL-22R1a ECD, relative to Reference Standard (100%); stored -20 C, 30 months
[7] = molecular target: IL-22R1a extracellular domain (ECD) (UniProt Q8N6P7); experiment: potency assay (binding ELISA on plate-coated IL-22R1a ECD), relative to reference standard (100%); stored 5 C, 24 months
[8] = molecular target: IL-22R1a extracellular domain (ECD) (UniProt Q8N6P7); experiment: potency assay (binding ELISA on plate-coated IL-22R1a ECD), relative to reference standard (100%); stored 25 C, 6 months
[9] = molecular target: IL-22R1a extracellular domain (ECD) (UniProt Q8N6P7); experiment: potency assay (binding ELISA on plate-coated IL-22R1a ECD), relative to reference standard (100%); stored 25 C, 3 months
[10] = molecular target: IL-22R1a extracellular domain (ECD) (UniProt Q8N6P7); experiment: potency assay (binding ELISA on plate-coated IL-22R1a ECD), relative to reference standard (100%); stored 5 C, 9 months
[11] = molecular target: IL-22R1a extracellular domain (ECD) (UniProt Q8N6P7); experiment: binding ELISA on plate-coated IL-22R1a ECD, relative to Reference Standard (100%); stored 5 C, 2 months
[12] = molecular target: IL-22R1a extracellular domain (ECD) (UniProt Q8N6P7); experiment: binding ELISA on plate-coated IL-22R1a ECD, relative to Reference Standard (100%); stored 5 C, 6 months
[13] = molecular target: IL-22R1a extracellular domain (ECD) (UniProt Q8N6P7); experiment: potency assay (binding ELISA on plate-coated IL-22R1a ECD), relative to reference standard; 40 C stress, day 10
[14] = molecular target: IL-22R1a extracellular domain (ECD) (UniProt Q8N6P7); experiment: binding ELISA on plate-coated IL-22R1a ECD, relative to Reference Standard (100%); stored -20 C, 18 months; remark: listed apart in the source
[15] = molecular target: IL-22R1a extracellular domain (ECD) (UniProt Q8N6P7); experiment: potency assay (binding ELISA on plate-coated IL-22R1a ECD), relative to reference standard; 40 C stress, day 0
[16] = molecular target: IL-22R1a extracellular domain (ECD) (UniProt Q8N6P7); experiment: binding ELISA on plate-coated IL-22R1a ECD, relative to Reference Standard (100%); stored -20 C, 3 months
[17] = molecular target: IL-22R1a extracellular domain (ECD) (UniProt Q8N6P7); experiment: binding ELISA on plate-coated IL-22R1a ECD, relative to Reference Standard (100%); stored -20 C, 24 months
[18] = molecular target: IL-22R1a extracellular domain (ECD) (UniProt Q8N6P7); experiment: potency assay (binding ELISA on plate-coated IL-22R1a ECD), relative to reference standard; 40 C stress, day 5
[19] = molecular target: IL-22R1a extracellular domain (ECD) (UniProt Q8N6P7); experiment: potency assay (binding ELISA on plate-coated IL-22R1a ECD), relative to reference standard (100%); stored 25 C, 3 months; remark: listed apart in the source
[20] = molecular target: IL-22R1a extracellular domain (ECD) (UniProt Q8N6P7); experiment: binding ELISA on plate-coated IL-22R1a ECD, relative to Reference Standard (100%); stored -20 C, 24 months; remark: listed apart in the source
[21] = molecular target: IL-22R1a extracellular domain (ECD) (UniProt Q8N6P7); experiment: potency assay (binding ELISA on plate-coated IL-22R1a ECD), relative to reference standard (100%); stored 5 C, 48 months
[22] = molecular target: IL-22R1a extracellular domain (ECD) (UniProt Q8N6P7); experiment: potency assay (binding ELISA on plate-coated IL-22R1a ECD), relative to reference standard (100%); stored 5 C, 36 months
[23] = molecular target: IL-22R1a extracellular domain (ECD) (UniProt Q8N6P7); experiment: binding ELISA on plate-coated IL-22R1a ECD, relative to Reference Standard; 10 mM sodium phosphate, 240 mM sucrose, 0.02% PS20, pH 7.0; control sample
[24] = molecular target: IL-22R1a extracellular domain (ECD) (UniProt Q8N6P7); experiment: binding ELISA on plate-coated IL-22R1a ECD, relative to Reference Standard (100%); stored 5 C, 6 months; remark: listed apart in the source
[25] = molecular target: IL-22R1a extracellular domain (ECD) (UniProt Q8N6P7); experiment: binding ELISA on plate-coated IL-22R1a ECD, relative to Reference Standard (100%); T=0
[26] = molecular target: IL-22R1a extracellular domain (ECD) (UniProt Q8N6P7); experiment: potency assay (binding ELISA on plate-coated IL-22R1a ECD), relative to reference standard (100%); stored 25 C, 1 month
[27] = molecular target: IL-22R1a extracellular domain (ECD) (UniProt Q8N6P7); experiment: potency assay (binding ELISA on plate-coated IL-22R1a ECD), relative to reference standard (100%); stored 5 C, 36 months; remark: listed apart in the source
[28] = molecular target: IL-22R1a extracellular domain (ECD) (UniProt Q8N6P7); experiment: binding ELISA on plate-coated IL-22R1a ECD, relative to Reference Standard (100%); stored 5 C, 3 months

Sequence of UniProt Q8N6P7 (Q8N6P7 16-228 limits assumed): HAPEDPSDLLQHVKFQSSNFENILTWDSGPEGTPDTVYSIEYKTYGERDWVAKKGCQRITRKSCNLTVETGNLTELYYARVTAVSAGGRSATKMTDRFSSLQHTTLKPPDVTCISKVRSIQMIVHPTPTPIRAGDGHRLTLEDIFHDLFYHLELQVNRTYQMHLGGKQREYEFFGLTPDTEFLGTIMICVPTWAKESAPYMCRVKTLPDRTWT

loss of % relative potency (% relative potency) [1]: 29
Potency (% relative potency) (% relative potency) [2]: 67
Potency by Binding Assay (% relative potency) (% relative potency) [3]: 70
Potency by Binding Assay (% relative potency) (% relative potency) [4]: 72
Potency (% relative potency) (% relative potency) [5]: 60
Potency by Binding Assay (% relative potency) (% relative potency) [6]: 70
Potency (% relative potency) (% relative potency) [7]: 66
Potency (% relative potency) (% relative potency) [8]: 72
Potency (% relative potency) (% relative potency) [9]: 57
Potency (% relative potency) (% relative potency) [10]: 63
Potency by Binding Assay (% relative potency) (% relative potency) [11]: 75
Potency by Binding Assay (% relative potency) (% relative potency) [12]: 71
Potency (% relative potency) (% relative potency) [13]: 84 and 65
Potency by Binding Assay (% relative potency) (% relative potency) [14]: 101
Potency (% relative potency) (% relative potency) [15]: 104 and 85
Potency by Binding Assay (% relative potency) (% relative potency) [16]: 72
Potency by Binding Assay (% relative potency) (% relative potency) [17]: 97
Potency (% relative potency) (% relative potency) [18]: 80
Potency (% relative potency) (% relative potency) [19]: 95
Potency by Binding Assay (% relative potency) (% relative potency) [20]: 70
Potency (% relative potency) (% relative potency) [21]: 65
Potency (% relative potency) (% relative potency) [22]: 99
Estimated % relative potency (n = 2) (% relative potency) [23]: 89
Potency by Binding Assay (% relative potency) (% relative potency) [24]: 98
Potency by Binding Assay (% relative potency) (% relative potency) [25]: 108
Potency (% relative potency) (% relative potency) [26]: 68
Potency (% relative potency) (% relative potency) [27]: 67
Potency by Binding Assay (% relative potency) (% relative potency) [28]: 105
Substance: IL-22 Fc fusion protein
